{"source": "paper PMC10924461", "about": "“Structure and ligand binding in the putative anti-microbial peptide transporter protein, YejA” (Microbiology, 2024)", "key": {"[1]": {"biological_target": "T1, YejA, periplasmic solute-binding protein of the YejABEF ABC transporter from E. coli (E. coli K12, UniProt P33913 20-604)", "T1 construct": "YejA, E. coli K12, residues 1-585 (Gln1-Glu585) of the mature protein, without the signal peptide; numbers count on: the mature protein; also called EcYejA; recombinant YejA; source: E. coli BL21 (DE3) with pBKA101, purified (HisTrap, HRV 3C cleavage, S200 SEC); not shown: His6, C-terminal, cleaved", "T1 sequence (looked up)": "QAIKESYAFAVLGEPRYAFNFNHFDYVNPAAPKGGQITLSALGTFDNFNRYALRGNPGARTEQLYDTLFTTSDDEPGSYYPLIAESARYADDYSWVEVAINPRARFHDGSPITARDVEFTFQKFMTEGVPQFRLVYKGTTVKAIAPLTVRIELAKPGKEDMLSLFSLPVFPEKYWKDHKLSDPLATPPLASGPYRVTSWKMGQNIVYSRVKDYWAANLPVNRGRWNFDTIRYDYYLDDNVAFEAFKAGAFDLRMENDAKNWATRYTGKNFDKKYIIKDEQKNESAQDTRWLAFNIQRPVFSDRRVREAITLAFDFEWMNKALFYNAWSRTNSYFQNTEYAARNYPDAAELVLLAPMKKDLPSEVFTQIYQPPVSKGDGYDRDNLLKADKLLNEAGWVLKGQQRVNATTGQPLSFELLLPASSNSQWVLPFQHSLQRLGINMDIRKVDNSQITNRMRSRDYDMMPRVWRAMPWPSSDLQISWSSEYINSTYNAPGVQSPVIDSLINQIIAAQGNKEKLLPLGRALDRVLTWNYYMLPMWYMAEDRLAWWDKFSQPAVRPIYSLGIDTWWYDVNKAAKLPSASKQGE", "test": "thermal shift assay (SYPRO orange); 0.5 mg ml^-1 (7.3 µM) YejA, 5x SYPRO orange, 25 µl, 25-96 °C in 1 °C/30 s steps; synthetic peptides added; a shift greater than 3 °C taken as significant", "details": "both partners purified"}, "[2]": {"biological_target": "T1, YejA, periplasmic solute-binding …", "test": "thermal shift assay (SYPRO orange); 0.5 mg ml^-1 (7.3 µM) YejA, 5x SYPRO orange, 25 µl, 25-96 °C in 1 °C/30 s steps; synthetic peptides added; a shift greater than 3 °C taken as significant", "details": "both partners purified", "remark": "listed apart in the source"}}, "data": [{"protein": "LGEPRYAFN (YejA, E. coli, stretch of the N-terminal segment; numbers count on: the mature protein; source: synthetic peptide)", "values": [{"measurement": "melting temp. change with 1.25 mg ml^-1 (1.17 mM) peptide", "setting": "[1]", "value": 17, "unit": "°C"}]}, {"protein": "VLGEPRYAFNFNHFD (YejA, E. coli, stretch of the N-terminal segment; numbers count on: the mature protein; also called 15-mer; source: co-purified with recombinant YejA (self-derived); synthetic peptide)", "values": [{"measurement": "melting temp. change with 2.5 mg ml^-1 (1.37 mM) peptide", "setting": "[1]", "value": 26, "unit": "°C"}]}, {"protein": "LGEPRYAFNFN (YejA, E. coli, residues 12-22 of the N-terminal segment; numbers count on: the mature protein; also called undecapeptide; 11-mer; source: co-purified and co-crystallised with recombinant YejA (self-derived); synthetic peptide)", "values": [{"measurement": "Tm of YejA with 0.005 mg ml^-1 peptide (60.8 °C without peptide)", "setting": "[2]", "value": 62.6, "unit": "°C"}, {"measurement": "Tm of YejA with 0.05 mg ml^-1 peptide (60.8 °C without peptide)", "setting": "[2]", "value": 67.5, "unit": "°C"}, {"measurement": "melting temp. change with 0.75 mg ml^-1 (0.56 mM) peptide", "setting": "[1]", "value": 13, "unit": "°C"}]}, {"protein": "LGEPAYAFNFN (numbers count on: the peptide (Leu1 = residue 12 of mature YejA); source: synthetic peptide)", "values": [{"measurement": "melting temp. change with 2.5 mg ml^-1 (2.01 mM) peptide", "setting": "[1]", "value": 7, "unit": "°C"}]}, {"protein": "LGEPRWAFNFN (numbers count on: the peptide (Leu1 = residue 12 of mature YejA); also called Trp-containing peptide; Trp6 containing peptide; source: synthetic peptide)", "values": [{"measurement": "melting temp. change with 2.5 mg ml^-1 (1.85 mM) peptide", "setting": "[1]", "value": 22, "unit": "°C"}]}, {"protein": "GEPRYAFNFN (YejA, E. coli, stretch of the N-terminal segment; numbers count on: the mature protein; source: synthetic peptide)", "values": [{"measurement": "melting temp. change with 2.5 mg ml^-1 (2.06 mM) peptide", "setting": "[1]", "value": 14, "unit": "°C"}]}, {"protein": "FAVLGEPRYAFN (YejA, E. coli, stretch of the N-terminal segment; numbers count on: the mature protein; source: co-purified with recombinant YejA (self-derived); synthetic peptide)", "values": [{"measurement": "melting temp. change with 5 mg ml^-1 (3.61 mM) peptide", "setting": "[1]", "value": 19, "unit": "°C"}]}, {"protein": "VLGEPRYAFNF (YejA, E. coli, stretch of the N-terminal segment; numbers count on: the mature protein; source: co-purified with recombinant YejA (self-derived); synthetic peptide)", "values": [{"measurement": "melting temp. change with 2.5 mg ml^-1 (1.9 mM) peptide", "setting": "[1]", "value": 22, "unit": "°C"}]}, {"protein": "EPRYAFNFN (YejA, E. coli, stretch of the N-terminal segment; numbers count on: the mature protein; source: synthetic peptide)", "values": [{"measurement": "melting temp. change with 2.5 mg ml^-1 (2.16 mM) peptide", "setting": "[1]", "value": 8, "unit": "°C"}]}, {"protein": "VLGEPRYAFNFN (YejA, E. coli, stretch of the N-terminal segment; numbers count on: the mature protein; also called dodecapeptide; 12-mer; source: co-purified with recombinant YejA (self-derived); synthetic peptide)", "values": [{"measurement": "melting temp. change with 2.5 mg ml^-1 (1.75 mM) peptide", "setting": "[1]", "value": 21, "unit": "°C"}]}, {"protein": "LGEPRYAFNF (YejA, E. coli, stretch of the N-terminal segment; numbers count on: the mature protein; source: synthetic peptide)", "values": [{"measurement": "melting temp. change with 2.5 mg ml^-1 (2.06 mM) peptide", "setting": "[1]", "value": 20, "unit": "°C"}]}]}
